± gives the uncertainty stated by the source.
Experiment: self-splicing fitness, log relative to wild type (ln ratio); higher = more splicing; Tetrahymena group I intron in knt gene, E. coli kanamycin selection, DiMSum; sequences stand for … in CUCUCU…GGAGGGAAAAGUUAUCAGGCAUGCACCUGGUAGCUAGUCUUUAAACCAAUAGAUUGCAUCGGUUUAAAAGGCAAGACCGUCAAAUUGCGGGAAAGGGGUCAACAGCCGUUCAGUACCAAGUCUCAGGGGAAACUUUGAGAUGGCCUUGCAAAGGGUAUGGUAAUAAGCUGACGGACAUGGUCCUAACCACGCAGCCAAGUCCUAAGUCAACAGAUCUUCUGUUGAUAUGGAUGCAGUUCACAGACUAAAUGUCGGUCGGGGAAGAUGUAUUCUUCUCAUAAGAUAUAGUCGGACCUCUCCUUAAUGGGAGCUAGCGGAUGAAGUGAUGCAACACUGGAGCCGCUGGGAACUAAUUUGUAUGCGAAAGUAUAUUGAUUAGUUUUGGAGUACUCGUGGUCG
In short: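 Fitness was computed with DiMSum as the error-weighted combination of replicate fold changes, kanamycin versus none, each normalised to wild type. The library randomised all eight intron nucleotides of the P1ex region, with the intron placed in the knt kanamycin-resistance gene on pET-22b(+) in E. coli BL21(DE3). Six replicate transformations were grown overnight at 37°C or 30°C on LB agar with or without 25 μg/mL kanamycin, plus 100 μg/mL carbenicillin, 50 μM IPTG and 0.2% rhamnose. Pooled colonies were amplicon-sequenced on an Illumina HiSeq 2500.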

Row | Sequence | self-splicing fitness (ln) (30 °C) | self-splicing fitness (ln) (37 °C)
1 | UGGUAGCAAUAUUACGCAAU | -2.59 ± 0.24 | -2.56 ± 0.33
2 | UCGAAGCAAUAUUACGGCAU | -3.26 ± 0.2 | -1.62 ± 0.24
3 | UUACAGCAAUAUUACGCGGG | -2.33 ± 0.14 | -0.688 ± 0.12
4 | AAGCAGCAAUAUUACGUAUU | -2.12 ± 0.058 | -1.43 ± 0.082
5 | CGAGAGCAAUAUUACGCAUG | -2.98 ± 0.12 | -2.02 ± 0.12
6 | ACCCAGCAAUAUUACGGUCG | -3.85 ± 0.14 | -1.75 ± 0.095
7 | AGUUAGCAAUAUUACGAAAG | -4.09 ± 0.21 | -2.82 ± 0.24
8 | ACUUAGCAAUAUUACGACGG | -0.755 ± 0.081 | -0.0301 ± 0.11
9 | CAGAAGCAAUAUUACGCCCG | -0.995 ± 0.15 | 0.147 ± 0.16
10 | CCCGAGCAAUAUUACGAUAU | -4.76 ± 0.45 | -2.2 ± 0.22
11 | GUGUAGCAAUAUUACGCGGC | -2.8 ± 0.29 | -0.745 ± 0.23
12 | CGGCAGCAAUAUUACGUCCG | -2.03 ± 0.12 | -2.92 ± 0.24
13 | AGCUAGCAAUAUUACGUAUG | -2.52 ± 0.15 | -0.829 ± 0.12
14 | UGGUAGCAAUAUUACGAAUC | -2.14 ± 0.32 | 
15 | ACCGAGCAAUAUUACGCGGG | -3.85 ± 0.18 | -2.89 ± 0.19
16 | GCUUAGCAAUAUUACGCUUA | -0.849 ± 0.11 | -0.925 ± 0.14
17 | CCGUAGCAAUAUUACGUAAU | -4.17 ± 0.26 | -1.96 ± 0.26
18 | CAUUAGCAAUAUUACGUAAC | -3.01 ± 0.26 | -2.14 ± 0.25
19 | UUAAAGCAAUAUUACGGAAG | -1.67 ± 0.087 | -0.452 ± 0.11
20 | AUAUAGCAAUAUUACGCGAU | -2.69 ± 0.33 | -1.57 ± 0.49
21 | CUACAGCAAUAUUACGCGAA | -2.83 ± 0.18 | -3.89 ± 0.31
22 | AGUCAGCAAUAUUACGACGU | 0.702 ± 0.092 | -0.164 ± 0.096
23 | UAGGAGCAAUAUUACGUUAU | -4.64 ± 0.22 | -2.85 ± 0.15
24 | AGCGAGCAAUAUUACGACAU | -1.32 ± 0.015 | -0.624 ± 0.034
25 | CUGCAGCAAUAUUACGCAGC | -2.88 ± 0.32 | 

Row | Sequence | self-splicing fitness (ln) (30 °C) | self-splicing fitness (ln) (37 °C)
26 | CUCUAGCAAUAUUACGGGAA | -2.54 ± 0.14 | -1.11 ± 0.11
27 | GUCCAGCAAUAUUACGACCC | -0.218 ± 0.18 | 0.168 ± 0.21
28 | GCCUAGCAAUAUUACGCCAU |  | -1.68 ± 0.45
29 | GCCCAGCAAUAUUACGUCUU | -0.849 ± 0.061 | -0.668 ± 0.09
30 | UUCAAGCAAUAUUACGCCGA | -0.5 ± 0.18 | -0.423 ± 0.23
31 | GACCAGCAAUAUUACGAAAG | -2.49 ± 0.1 | -2.58 ± 0.18
32 | AGACAGCAAUAUUACGCCCA | -0.00321 ± 0.2 | 0.432 ± 0.28
33 | UGGUAGCAAUAUUACGUUCG | -0.221 ± 0.12 | -0.719 ± 0.14
34 | CUUGAGCAAUAUUACGUAUC | -3.35 ± 0.19 | -3.22 ± 0.33
35 | AACAAGCAAUAUUACGUUUG | -2.87 ± 0.096 | -2.46 ± 0.12
36 | CCAUAGCAAUAUUACGGAGA | -4.12 ± 0.28 | -3.35 ± 0.29
37 | UAAAAGCAAUAUUACGCGCC | -1.76 ± 0.2 | -0.751 ± 0.24
38 | AUGCAGCAAUAUUACGUGAG | -1.36 ± 0.049 | -1.06 ± 0.073
39 | UGUCAGCAAUAUUACGCCAG | -1.31 ± 0.1 | -0.7 ± 0.12
40 | CUGGAGCAAUAUUACGUAGU |  | -3.43 ± 0.46
41 | GUUCAGCAAUAUUACGCGCA | -1.04 ± 0.2 | 0.567 ± 0.21
42 | CGUCAGCAAUAUUACGCGUU | -2.71 ± 0.14 | -2.01 ± 0.18
43 | AGACAGCAAUAUUACGGCCC | -0.119 ± 0.2 | -0.253 ± 0.25
44 | CGGCAGCAAUAUUACGAGCA | -2.99 ± 0.24 | -0.81 ± 0.13
45 | UUGCAGCAAUAUUACGCCCA | -1.28 ± 0.21 | -0.155 ± 0.25
46 | UUCCAGCAAUAUUACGGCGC | -2.61 ± 0.14 | -0.177 ± 0.12
47 | CCUGAGCAAUAUUACGGCCA | -2.01 ± 0.34 | -2.05 ± 0.29
48 | UUGCAGCAAUAUUACGAGCU | -2.6 ± 0.1 | -1.37 ± 0.11
49 | UCGGAGCAAUAUUACGUACC | -2.84 ± 0.48 | 
50 | UGGUAGCAAUAUUACGUUGU | -4.52 ± 0.36 | -2.86 ± 0.26

Row | Sequence | self-splicing fitness (ln) (30 °C) | self-splicing fitness (ln) (37 °C)
51 | GAACAGCAAUAUUACGUAGC | -0.75 ± 0.074 | -0.22 ± 0.1
52 | AAGAAGCAAUAUUACGCGAC | -3.25 ± 0.24 | -1.53 ± 0.13
53 | ACGGAGCAAUAUUACGGCGG | -1.4 ± 0.12 | -0.413 ± 0.13
54 | ACCCAGCAAUAUUACGCCCA | -0.605 ± 0.12 | -0.4 ± 0.13
55 | GCAUAGCAAUAUUACGGACG | -1.7 ± 0.088 | -0.659 ± 0.12
56 | GAACAGCAAUAUUACGGCUA | -0.474 ± 0.077 | -0.117 ± 0.084
57 | CCGGAGCAAUAUUACGUAGU | -4.17 ± 0.25 | -3.22 ± 0.22
58 | CCACAGCAAUAUUACGGCGA | -3.36 ± 0.18 | -1.63 ± 0.13
59 | AUAUAGCAAUAUUACGAACG | -1.56 ± 0.18 | -0.154 ± 0.2
60 | UACAAGCAAUAUUACGACAC | -3.15 ± 0.18 | -1.38 ± 0.15
61 | ACAGAGCAAUAUUACGGCUC | -3.09 ± 0.16 | -2.37 ± 0.22
62 | AUCAAGCAAUAUUACGCAUC | -3.97 ± 0.24 | -1.64 ± 0.14
63 | UCUCAGCAAUAUUACGAGGU |  | -1.53 ± 0.25
64 | GGAUAGCAAUAUUACGGCUC | -0.0157 ± 0.31 | -1.59 ± 0.35
65 | AUCCAGCAAUAUUACGAGGA | -2.21 ± 0.17 | -1.49 ± 0.17
66 | UGGAAGCAAUAUUACGAGGA | -2.94 ± 0.4 | -2.82 ± 0.4
67 | AUCAAGCAAUAUUACGGUCG | -2.22 ± 0.12 | -2.03 ± 0.14
68 | CAGAAGCAAUAUUACGGUUC | -3.71 ± 0.19 | -2.49 ± 0.2
69 | AACGAGCAAUAUUACGAGCU | -4.74 ± 0.36 | -3.22 ± 0.27
70 | UAUCAGCAAUAUUACGCCAA | -1.34 ± 0.19 | -0.351 ± 0.2
71 | AAGCAGCAAUAUUACGUACG | -2.18 ± 0.12 | -0.645 ± 0.13
72 | CUAAAGCAAUAUUACGUGAC | -1.12 ± 0.051 | -0.411 ± 0.078
73 | AUAGAGCAAUAUUACGUUCU | -1.35 ± 0.15 | 0.267 ± 0.17
74 | AGAGAGCAAUAUUACGGUGU | -3.59 ± 0.25 | -2.97 ± 0.22
75 | GUGAAGCAAUAUUACGUCAC |  | -2.47 ± 0.48

Row | Sequence | self-splicing fitness (ln) (30 °C) | self-splicing fitness (ln) (37 °C)
76 | AAAGAGCAAUAUUACGCGGC |  | -3.08 ± 0.4
77 | CGCCAGCAAUAUUACGUGUU | -3.08 ± 0.14 | -3.21 ± 0.18
78 | UUUCAGCAAUAUUACGAUUA | 0.327 ± 0.096 | 0.0465 ± 0.088
79 | GAAAAGCAAUAUUACGUUAU | -1.67 ± 0.07 | -0.868 ± 0.088
80 | AGAAAGCAAUAUUACGGGUC | -3.05 ± 0.21 | -3.35 ± 0.31
81 | UGACAGCAAUAUUACGCACC | -1.38 ± 0.12 | -0.767 ± 0.17
82 | GGCGAGCAAUAUUACGGGCG | -0.296 ± 0.12 | 0.0537 ± 0.14
83 | AGGUAGCAAUAUUACGACGG | -2.04 ± 0.02 | -1.31 ± 0.037
84 | GGUUAGCAAUAUUACGGGCC | -2.52 ± 0.27 | -1.47 ± 0.29
85 | UCAUAGCAAUAUUACGGAAU | -3.32 ± 0.33 | -3.09 ± 0.47
86 | CGGCAGCAAUAUUACGACGC | -3.45 ± 0.28 | -0.355 ± 0.21
87 | GGUUAGCAAUAUUACGACGA | -1.15 ± 0.18 | 0.349 ± 0.21
88 | UUGCAGCAAUAUUACGUCUC | -1.21 ± 0.12 | -0.311 ± 0.16
89 | UAAGAGCAAUAUUACGAAGG | -4.21 ± 0.34 | -1.81 ± 0.2
90 | UCGCAGCAAUAUUACGUUGA | -3.11 ± 0.23 | -1.06 ± 0.14
91 | CGUAAGCAAUAUUACGUAAG | -1.49 ± 0.1 | -0.165 ± 0.092
92 | UCCCAGCAAUAUUACGCCAG | -2.08 ± 0.23 | -2.27 ± 0.49
93 | UGACAGCAAUAUUACGCACA | 0.341 ± 0.092 | 0.528 ± 0.12
94 | AUAAAGCAAUAUUACGCGGA | -1.65 ± 0.083 | 0.155 ± 0.089
95 | GCACAGCAAUAUUACGUGAG | 0.0789 ± 0.047 | 0.0342 ± 0.06
96 | CGAGAGCAAUAUUACGAAAC | -2.91 ± 0.36 | -1.97 ± 0.48
97 | GGCCAGCAAUAUUACGUGGU | -3.49 ± 0.21 | -1.76 ± 0.2
